# Tests used:
# Test in all cases: cell-based or functional assay
# [1] = target: HIV-1 Env of MB539.2B7 (HIV-1)
# [2] = target: HIV-1 Env of CNE3 (HIV-1)
# [3] = target: HIV-1 Env of THRO.18 (HIV-1)
# [4] = target: HIV-1 Env of 6535.3 (HIV-1)
# [5] = target: HIV-1 Env of 3016.V5.c36 (HIV-1)
# [6] = target: HIV-1 Env of TH976.17 (HIV-1)
# [7] = target: HIV-1 Env of ZM233.6 (HIV-1)
# [8] = target: HIV-1 Env of CAAN.A2 (HIV-1)
# [9] = target: HIV-1 Env of CAP244.D3 (HIV-1)
# [10] = target: HIV-1 Env of SC422.8 (HIV-1)
# [11] = target: HIV-1 Env of ZM197.7 (HIV-1)
# [12] = target: HIV-1 Env of QH0692.42 (HIV-1)
# [13] = target: HIV-1 Env of DU422.01 (HIV-1)
# [14] = target: HIV-1 Env of KER2008.12 (HIV-1)
# [15] = target: HIV-1 Env of MB201 (HIV-1)
# [16] = target: HIV-1 Env of UG037.8 (HIV-1)
# [17] = target: HIV-1 Env of CM244.ec1 (HIV-1)
# [18] = target: HIV-1 Env of Q23.17 (HIV-1)
# [19] = target: HIV-1 Env of 96ZM651.02 (HIV-1)
# [20] = target: HIV-1 Env of CAP210.E8 (HIV-1)
# [21] = target: HIV-1 Env of REJO.67 (HIV-1)
# [22] = target: HIV-1 Env of Q461.e2 (HIV-1)
# [23] = target: HIV-1 Env of WITO.33 (HIV-1)
# [24] = target: HIV-1 Env of 6405.v4.c34 (HIV-1)
# [25] = target: HIV-1 Env of ZM53.12 (HIV-1)
# [26] = target: HIV-1 Env of ZM214.15 (HIV-1)
# [27] = target: HIV-1 Env of PVO.04 (HIV-1)
# [28] = target: HIV-1 Env of CAP256.PI (HIV-1)
# [29] = target: HIV-1 Env of 0260.v5.c36 (HIV-1)
# [30] = target: HIV-1 Env of KER2018.11 (HIV-1)
# [31] = target: HIV-1 Env of AC10.29 (HIV-1)
# [32] = target: HIV-1 Env of RW020.2 (HIV-1)
# [33] = target: HIV-1 Env of C1080.c3 (HIV-1)
# [34] = target: HIV-1 Env of RHPA.7 (HIV-1)
# [35] = target: HIV-1 Env of Q168.a2 (HIV-1)
# [36] = target: HIV-1 Env of CAP45.G3 (HIV-1)
# [37] = target: HIV-1 Env of BG505.w6m (HIV-1)
# [38] = target: HIV-1 Env of ZM249.1 (HIV-1)
# [39] = target: HIV-1 Env of Q259.d2.17 (HIV-1)
# [40] = target: HIV-1 Env of DU172.17 (HIV-1)
# [41] = target: HIV-1 Env of ZM109.4 (HIV-1)
# [42] = target: HIV-1 Env of DU156.12 (HIV-1)
# [43] = target: HIV-1 Env of ZM135.10a (HIV-1)
# [44] = target: HIV-1 Env of Q769.d22 (HIV-1)
# [45] = target: HIV-1 Env of TRO.11 (HIV-1)
# [46] = target: HIV-1 Env of CAP256.SU (HIV-1)
# [47] = target: HIV-1 Env of TRJO.58 (HIV-1)
# [48] = target: HIV-1 Env of 191821.E6.1 (HIV-1)
# [49] = target: HIV-1 Env of Q842.d12 (HIV-1)
substance,measurement,setting,value
CAP256-VRC26.13 (antibody),IC50,[1],> 50 µg/mL
same,IC50,[2],> 50 µg/mL
same,IC50,[3],> 50 µg/mL
same,IC50,[4],> 50 µg/mL
same,IC50,[5],3.74 µg/mL
same,IC50,[6],> 50 µg/mL
same,IC50,[7],> 50 µg/mL
same,IC50,[8],> 50 µg/mL
same,IC50,[9],> 50 µg/mL
same,IC50,[10],> 50 µg/mL
same,IC50,[11],> 50 µg/mL
same,IC50,[12],> 50 µg/mL
same,IC50,[13],> 50 µg/mL
same,IC50,[14],> 50 µg/mL
same,IC50,[15],> 50 µg/mL
same,IC50,[16],> 50 µg/mL
same,IC50,[17],> 50 µg/mL
same,IC50,[18],> 50 µg/mL
same,IC50,[19],> 50 µg/mL
same,IC50,[20],0.094 µg/mL
same,IC50,[21],> 50 µg/mL
same,IC50,[22],> 50 µg/mL
same,IC50,[23],> 50 µg/mL
same,IC50,[24],> 50 µg/mL
same,IC50,[25],0.039 µg/mL
same,IC50,[26],> 50 µg/mL
same,IC50,[27],> 50 µg/mL
same,IC50,[28],> 50 µg/mL
same,IC50,[29],> 50 µg/mL
same,IC50,[30],> 50 µg/mL
same,IC50,[31],> 50 µg/mL
same,IC50,[32],> 50 µg/mL
same,IC50,[33],> 50 µg/mL
same,IC50,[34],> 50 µg/mL
same,IC50,[35],> 50 µg/mL
same,IC50,[36],> 50 µg/mL
same,IC50,[37],> 50 µg/mL
same,IC50,[38],> 50 µg/mL
same,IC50,[39],> 50 µg/mL
same,IC50,[40],> 50 µg/mL
same,IC50,[41],> 50 µg/mL
same,IC50,[42],> 50 µg/mL
same,IC50,[43],> 50 µg/mL
same,IC50,[44],> 50 µg/mL
same,IC50,[45],> 50 µg/mL
same,IC50,[46],0.019 µg/mL
same,IC50,[47],> 50 µg/mL
same,IC50,[48],> 50 µg/mL
same,IC50,[49],> 50 µg/mL
CAP256-VRC26.14 (antibody),IC50,[1],> 50 µg/mL
same,IC50,[2],> 50 µg/mL
same,IC50,[3],> 50 µg/mL
same,IC50,[4],> 50 µg/mL
same,IC50,[5],0.012 µg/mL
same,IC50,[6],> 50 µg/mL
same,IC50,[7],0.028 µg/mL
same,IC50,[8],> 50 µg/mL
same,IC50,[9],> 50 µg/mL
same,IC50,[10],> 50 µg/mL
same,IC50,[11],4.96 µg/mL
same,IC50,[12],> 50 µg/mL
same,IC50,[13],49 µg/mL
same,IC50,[14],> 50 µg/mL
same,IC50,[15],> 50 µg/mL
same,IC50,[16],> 50 µg/mL
same,IC50,[17],6.16 µg/mL
same,IC50,[18],> 50 µg/mL
same,IC50,[19],> 50 µg/mL
same,IC50,[20],0.012 µg/mL
same,IC50,[21],> 50 µg/mL
same,IC50,[22],> 50 µg/mL
same,IC50,[23],> 50 µg/mL
same,IC50,[24],> 50 µg/mL
same,IC50,[25],0.006 µg/mL
same,IC50,[26],> 50 µg/mL
same,IC50,[27],> 50 µg/mL
same,IC50,[28],> 50 µg/mL
same,IC50,[29],> 50 µg/mL
same,IC50,[30],0.03 µg/mL
same,IC50,[31],> 50 µg/mL
same,IC50,[32],> 50 µg/mL
same,IC50,[33],0.779 µg/mL
same,IC50,[34],> 50 µg/mL
same,IC50,[35],> 50 µg/mL
same,IC50,[36],> 50 µg/mL
same,IC50,[37],0.75 µg/mL
same,IC50,[38],> 50 µg/mL
same,IC50,[39],2.13 µg/mL
same,IC50,[40],> 50 µg/mL
same,IC50,[41],> 50 µg/mL
same,IC50,[42],> 50 µg/mL
same,IC50,[43],> 50 µg/mL
same,IC50,[44],> 50 µg/mL
same,IC50,[45],> 50 µg/mL
same,IC50,[46],0.004 µg/mL
same,IC50,[47],> 50 µg/mL
same,IC50,[48],3.36 µg/mL
same,IC50,[49],> 50 µg/mL

# From US20200199204A1
